Data published in patent US20200024322A1 (Eli Lilly, published 2020).
Numbered stars: 1 amine (or outer) side, 2 acyl side, 3 side chain; on linkers, the order of the positions; unused ones are H or OH. Square brackets hold non-standard residues; d marks the D form. Side chains are listed from the residue outwards. Ends that are not written are not given here. * marks the point of attachment. C20 diacid = O=C(O)CCCCCCCCCCCCCCCCCCC(=O)*; γGlu = O=C(O)[C@H](CCC(=O)[*:2])N[*:1]; αMeL = CC(C)C[C@](C)(N)C(=O)O; AEEA = NCCOCCOCC(=O)O; Aib = CC(C)(N)C(=O)O

T1: human GIP receptor (human, UniProt P48546 22-466)
T1 construct: whole, on cells; Used as crude membranes of stably transfected CHO cells; also called hGIPR
T1 sequence (looked up): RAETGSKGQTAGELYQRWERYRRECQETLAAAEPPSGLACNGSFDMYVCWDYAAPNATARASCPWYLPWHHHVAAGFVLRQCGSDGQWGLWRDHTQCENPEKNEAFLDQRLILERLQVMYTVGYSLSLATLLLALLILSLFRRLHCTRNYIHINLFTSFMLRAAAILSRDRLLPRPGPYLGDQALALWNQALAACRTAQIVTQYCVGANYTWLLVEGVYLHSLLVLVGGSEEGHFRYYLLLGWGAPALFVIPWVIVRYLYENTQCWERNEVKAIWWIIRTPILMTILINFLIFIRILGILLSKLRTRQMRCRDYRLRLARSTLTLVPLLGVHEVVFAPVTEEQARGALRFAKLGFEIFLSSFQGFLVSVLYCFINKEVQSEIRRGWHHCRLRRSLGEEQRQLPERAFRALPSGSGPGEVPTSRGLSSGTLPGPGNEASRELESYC


Tests used:
human GIP receptor = biological target: T1, human GIP receptor; test: SPA, [125I]-GIP displacement, hGIPR membranes
human glucagon receptor = biological target: T2, human glucagon receptor (human, UniProt P47871 26-477); test: SPA, [125I]-Gcg displacement, hGcgR membranes
T2 construct: whole, on cells; Used as crude membranes of stably transfected HEK293 cells; also called hGcgR; hGLcgR

human GLP-1 receptor = biological target: T3, human GLP-1 receptor (human, UniProt P43220 24-463); test: SPA, [125I]-GLP-1 displacement, hGLP-1R membranes
T3 construct: whole, on cells; Used as crude membranes of stably transfected HEK293 cells; also called hGLP1R; hGLP-1R

T2 sequence (P47871 26-477): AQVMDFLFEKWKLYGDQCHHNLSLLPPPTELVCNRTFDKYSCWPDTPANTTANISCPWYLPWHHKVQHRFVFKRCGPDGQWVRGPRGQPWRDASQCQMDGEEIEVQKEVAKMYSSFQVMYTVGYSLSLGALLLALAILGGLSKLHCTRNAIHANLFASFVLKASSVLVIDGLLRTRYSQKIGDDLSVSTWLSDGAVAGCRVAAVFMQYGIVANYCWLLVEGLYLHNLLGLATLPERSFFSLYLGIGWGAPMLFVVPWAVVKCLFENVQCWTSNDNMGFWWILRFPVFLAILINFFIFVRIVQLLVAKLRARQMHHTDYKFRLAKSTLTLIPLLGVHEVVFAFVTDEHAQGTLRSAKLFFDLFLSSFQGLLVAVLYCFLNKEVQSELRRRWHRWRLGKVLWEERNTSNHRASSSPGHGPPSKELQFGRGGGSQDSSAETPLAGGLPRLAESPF

Binder	Ki (human GIP receptor) [nM]	Ki (human glucagon receptor) [nM]	Ki (human GLP-1 receptor) [nM]
YXEGTFTSDYSIXLDEKAQXAFIEYLLEGGPSSGAPPPS (Aib2; αMeL13; K17((2-[2-(2-Amino-ethoxy)-ethoxy]-acetyl)2-(γ-Glu)-CO-(CH2)18-CO2H); Aib20; C-terminal NH2) [Example 66]	0.106	93.7	7.53
H[Aib]EGTFTSDYSI[αMeL]LDKK([AEEA-AEEA-γGlu-C20 diacid])AQHAFIEYLIEGGPSSGAPPPS-NH2 (N-terminus assumed; SMILES CC[C@H](C)[C@H](NC(=O)[C@H](CC(C)C)NC(=O)[C@H](Cc1ccc(O)cc1)NC(=O)[C@H](CCC(=O)O)NC(=O)[C@@H](NC(=O)[C@H](Cc1ccccc1)NC(=O)[C@H](C)NC(=O)[C@H](Cc1c[nH]cn1)NC(=O)[C@H](CCC(N)=O)NC(=O)[C@H](C)NC(=O)[C@H](CCCCNC(=O)COCCOCCNC(=O)COCCOCCNC(=O)CC[C@H](NC(=O)CCCCCCCCCCCCCCCCCCC(=O)O)C(=O)O)NC(=O)[C@H](CCCCN)NC(=O)[C@H](CC(=O)O)NC(=O)[C@H](CC(C)C)NC(=O)[C@](C)(CC(C)C)NC(=O)[C@@H](NC(=O)[C@H](CO)NC(=O)[C@H](Cc1ccc(O)cc1)NC(=O)[C@H](CC(=O)O)NC(=O)[C@H](CO)NC(=O)[C@@H](NC(=O)[C@H](Cc1ccccc1)NC(=O)[C@@H](NC(=O)CNC(=O)[C@H](CCC(=O)O)NC(=O)C(C)(C)NC(=O)[C@@H](N)Cc1c[nH]cn1)[C@@H](C)O)[C@@H](C)O)[C@@H](C)CC)[C@@H](C)CC)C(=O)N[C@@H](CCC(=O)O)C(=O)NCC(=O)NCC(=O)N1CCC[C@H]1C(=O)N[C@@H](CO)C(=O)N[C@@H](CO)C(=O)NCC(=O)N[C@@H](C)C(=O)N1CCC[C@H]1C(=O)N1CCC[C@H]1C(=O)N1CCC[C@H]1C(=O)N[C@@H](CO)C(N)=O) [Example 54]	0.965	333	1.66
YXEGTXTSDYSILLDKKAQXAFIEYLIEGGPSSGAPPPS (Aib2; αMeF6; K17((2-[2-(2-Amino-ethoxy)-ethoxy]-acetyl)2-(γ-Glu)-CO-(CH2)18-CO2H); Aib20; C-terminal NH2) [Example 57]	0.0583	26.1	3
YXEGTXTSDISILLDKKAQXAFIEYLIEGGPSSGAPPPS (Aib2; αMeF6; K17((2-[2-(2-Amino-ethoxy)-ethoxy]-acetyl)2-(γ-Glu)-CO-(CH2)18-CO2H); Aib20; C-terminal NH2) [Example 127]	0.126	43.6	1.86
YXEGTXTSDHSILLDKKAQXAFIEYLIEGGPSSGAPPPS (Aib2; αMeF6; K17((2-[2-(2-Amino-ethoxy)-ethoxy]-acetyl)2-(γ-Glu)-CO-(CH2)18-CO2H); Aib20; C-terminal NH2) [Example 128]	0.0625	433	1.88
YXEGTXTSDLSILLDKKAQXAFIEYLIEGGPSSGAPPPS (Aib2; αMeF6; K17((2-[2-(2-Amino-ethoxy)-ethoxy]-acetyl)2-(γ-Glu)-CO-(CH2)18-CO2H); Aib20; C-terminal NH2) [Example 129]	0.0278	14.9	1
YXEGTFTSDYSIXLDXKAQXAFIEYLIEGGPSSGAPPPS (Aib2; αMeL13; Aib16; K17((2-[2-(2-Amino-ethoxy)-ethoxy]-acetyl)2-(γ-Glu)-CO-(CH2)18-CO2H); Aib20; C-terminal NH2) [Example 60]	0.0655	237	9.55
YXEGTXTSDYSIXLDXKAQXEFIXYLIEGGPSSGAPPPS (Aib2; αMeF(2F)6; αMeL13; Orn16; K17((2-[2-(2-Amino-ethoxy)-ethoxy]-acetyl)2-(γ-Glu)-CO-(CH2)18-CO2H); Aib20; D-Glu24; C-terminal NH2) [Example 3]	0.0458	242	2.23
YXEGTFTSDYSIXLDKKAQXAFIEYLIEGG (Aib2; αMeL13; K17((2-[2-(2-Amino-ethoxy)-ethoxy]-acetyl)2-(γ-Glu)-CO-(CH2)18-CO2H); Aib20; C-terminal NH2) [Example 62]	0.0545	168	2.03
YXEGTFTSDYSIXLDEKAQXAFIEYLIEGG (Aib2; αMeL13; K17((2-[2-(2-Amino-ethoxy)-ethoxy]-acetyl)2-(γ-Glu)-CO-(CH2)18-CO2H); Aib20; C-terminal NH2) [Example 63]	0.141	273	7.79
YXEGTFTSDYSIXLDSKAQXAFIEYLIEGG (Aib2; αMeL13; K17((2-[2-(2-Amino-ethoxy)-ethoxy]-acetyl)2-(γ-Glu)-CO-(CH2)18-CO2H); Aib20; C-terminal NH2) [Example 64]	0.0866	260	4.86
YXEGTFTSDYSIXLDTKAQXAFIEYLIEGG (Aib2; αMeL13; K17((2-[2-(2-Amino-ethoxy)-ethoxy]-acetyl)2-(γ-Glu)-CO-(CH2)18-CO2H); Aib20; C-terminal NH2) [Example 65]	0.0643	194	4.53
YXEGTFTSDYSILLDKKAQXAXIEYLIEGGPSSGAPPPS (Aib2; K17((2-[2-(2-Amino-ethoxy)-ethoxy]-acetyl)2-(γ-Glu)-CO-(CH2)18-CO2H); Aib20; αMeF22; C-terminal NH2) [Example 67]	0.061	270	10.2
